In patent US20240182562A1:

How the values were obtained:
[1] = target: Human CLDN18.1 (human) (UniProt P56856); experiment: FACS, hybridoma culture supernatant on CHO-human CLDN18.1 cells (permeable membrane treatment)
[2] = target: Human CLDN18.1 (human) (UniProt P56856); experiment: FACS, hybridoma culture supernatant on 293T-human CLDN18.1 cells (permeable membrane treatment)

Human CLDN18.1 (human), sequence (P56856 whole entry): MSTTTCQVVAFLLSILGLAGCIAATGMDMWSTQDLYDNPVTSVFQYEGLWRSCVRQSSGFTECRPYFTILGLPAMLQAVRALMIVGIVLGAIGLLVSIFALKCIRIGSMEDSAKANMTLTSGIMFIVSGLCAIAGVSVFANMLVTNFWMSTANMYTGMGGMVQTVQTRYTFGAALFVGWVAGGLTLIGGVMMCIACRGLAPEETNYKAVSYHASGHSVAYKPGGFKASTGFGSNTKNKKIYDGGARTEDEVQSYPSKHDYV

B1: 7E3 (hybridoma clone, murine CLDN18.2 antigen-binding protein) (antibody, V domains shown)
VH: EVQLQQSGPELVKPGASVKMSCKASGYTFTNYIIHWVKQKPGQGLEWIGYINPYTDGPKYNEKFKGRATLTSDKSSSTAYMEFSSLTSEDSAVYYCARLNRGNAMDYWGQGTSVTVSS
VL: DIVMTQSPSSLTVTVREKVTLSCKSSQSLLNSGNQKNYLTWYQQKPGQPPKLLIYWASTRESGVPDRFTGSGSGTDFTLTISSVQAEDLAVYYCQNVYIYPFTFGAGTKLELKR
[1]
  Average fluorescence intensity: 3380
[2]
  Average fluorescence intensity: 3040

B2: 5E6 (hybridoma clone, murine CLDN18.2 antigen-binding protein) (antibody, V domains shown)
VH: EVQLQQSGPELVKPGASVKMSCKASGYTFTNYVMNWVKQKPGQGLEWIGYINPYNDGTKYNERFKGKATLTSDKSSSTAFMEVSSLTSEDSAVYYCARLYRGNAMDYWGQGTSVTVSS
VL: DIVMTQSPSSLTVTVREKVTLSCKSSQSLLNSGNQKNYLTWYQQKPGQPPKLLIYWASTRESGVPDRFTGSGSGTDFTLTISSVQAEDLAVYYCQNVYIYPFTFGAGTKLELKR
[1]
  Average fluorescence intensity: 5370
[2]
  Average fluorescence intensity: 4330

B3: 17B10 (hybridoma clone, murine CLDN18.2 antigen-binding protein) (antibody, V domains shown)
VH: EVQLQESGPELVKPGASVKMSCKASGYTFTNYIIHWVKQKPGQGLEWIGYINPYTDGPKYNEKFKGRATLTSDKSSSTAYMEFSSLTSEDSAVYYCARLNRGNAMDYWGQGTSVTVSS
VL: DIVMTQSPSSLTVTAGEKVTMNCKSSQSLLNSGNQKNYLTWYQQKPGQPPKLLIYWASTRESGVPDRFTGSGSGTDFTLTISSVQAEDLAVYYCQNDYSFPFTFGSGTKLEIKR
[1]
  Average fluorescence intensity: 1680
[2]
  Average fluorescence intensity: 2400

B4: 14E12 (hybridoma clone, murine CLDN18.2 antigen-binding protein) (antibody, V domains shown)
VH: EVQLQESGPELVKPGASVKMSCKASGYTFTNYIIHWVKQKPGQGLEWIGYINPYTDGPKYNEKFKGRATLTSDKSSSTAYMEFSSLTSEDSAVYYCARLNRGNAMDYWGQGTSVTVSS
VL: DIVMTQSPSSLSVSAGEKVTMSCKSSQSLLNNGNQKNYLAWYQQKPGQPPKLLIYGASTRESGVPDRFTGSGSGTDFALTISSVQAEDLAVYYCQNDLYYPFTFGSGTKLDIKR
[1]
  Average fluorescence intensity: 1860
[2]
  Average fluorescence intensity: 2580
